The source of these data is patent publication US20040132067, “Systematic evolution of ligands by exponential enrichment: photoselection of nucleic acid ligands and solution selex” (SOMALOGIC, INC., published 2004).

Data set [1] concerns the target T1, HIV-1 Rev (Human immunodeficiency virus 1, UniProt P04618 P04618:1-116). Kind of data set: photo-independent crosslinking seen at 50 nM Rev in 1:100 weight ratio with human nuclear extract. How it is done: Trunc24 (SEQ ID NO:59) photo-independent crosslinking with HIV-1 Rev in the presence of human nuclear extracts was determined as follows: Trunc24 RNA, nuclear extracts, and Rev protein were combined and incubated on ice for 10 min. Samples were mixed 1:1 with 8 M urea loading buffer and placed on a 7 M urea, 8% polyacrylamide gel for analysis, XL indicates the nucleoprotein complex, RNA indicates free trunc24 RNA.

Data set [2] concerns the target T1, HIV-1 Rev. Kind of data set: photocrosslinking 325 nm, 4 min, 500 nM protein, 20 ug tRNA, 37 C. From the text:
The sequences are aligned for maximum homology to the 6a sequence (SEQ ID NO:5). Underlines represent potential base pairing as indicted by computer RNA folding algorithms. Dashed underlines represent the 6a ligand “bubble” motif. Sequences flanked by underline represent either loop or bulge regions. Dashes are placed to maximize alignment with 6a. * denotes that two isolates were obtained. +indicates laser independent crosslinking and—denotes the lack of laser independent crosslinking to HIV-1 Rev. […] FIGS. 18 and 19 show the sequence of Trunc2 (SEQ ID NO:58) and Trunc24 (SEQ-ID NO:59) and the specificity results. 500 nM protein, 20 μg tRNA, and approximately 1 nM of kinased trunc2 RNA were incubated for 10 min. at 37° C. and irradiated for 4 min at 325 nm. t2-trunc2 RNA irradiated without added protein; t2Rev1/O′-trunc2 RNA, HIV-1 Rev protein and 0 min. of irradiation; t2/Rev1/4′-trunc2 RNA, HIV-1 Rev protein, adn 4 min. of irradiation; t2/Rev1/4′/PK-trunc2 RNA, HIV-1 Rev protein, 4 min. or irradiation, and proteinase K treated as in FIG. 1; t2/Rev2/4′-trunc2 RNA, HIV-2 Rev protein, and 4 min. of irradiation; t2/Tat/4′-trunc2 RNA, HIV-1 Tat protein, and 4 min. of irradiation. R-free RNA; XL-crosslinked nucleoprotein complex.

T1 sequence (P04618 whole entry, one chain of several): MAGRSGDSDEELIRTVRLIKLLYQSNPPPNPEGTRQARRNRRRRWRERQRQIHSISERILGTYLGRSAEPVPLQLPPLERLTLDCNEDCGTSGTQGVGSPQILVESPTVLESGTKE

On to GGGGAUUAACAGGCACACCUGUUAACCCU (ssRNA) [trunc24], for which, in the data set with HIV-1 Rev [1], the binding result is “binds”. Consider GGGUGUAUGAAACACCACGUGUGUUUCCACUC (ssRNA, 5-iodouracil at all U) [trunc2], for which, in the data set with HIV-1 Rev [2], the binding result is recorded as “binds”.
